From article doi:10.1101/2020.07.11.198572

Key:
[1] = target: EGFR-GFP (GFP-labelled epidermal growth factor receptor) in SW620-EGFR-GFP cells (human) (UniProt P00533)
[2] = target: EGFR-GFP (GFP-labelled epidermal growth factor receptor) in SW620-EGFR-GFP cells (human) (UniProt P00533); remark: listed apart in the source

- mean relative stoichiometry EGFR:EGF [1]: 4.2 EGFR:EGF
- stoichiometry N [1]: 1.9 EGFR:EGF
- percent of EGFR foci colocalized with EGF (3-60 min) [2]: 40%
- percent of all tracked EGFR molecules in foci colocalized with EGF [2]: 64%
Substance: EGF-TMR (epidermal growth factor conjugated to tetramethylrhodamine) (ligand)
